For data set [1] the following is noted: ref [25]; cited from earlier work.
The subject of another data set is ∆Impα3. The settings on record: CD 222 nm, 60 K/h, 50 mM phosphate pH 7.0, not reversible. The source says: Far-UV CD spectra were collected on a Jasco J810 spectropolarimeter (Jasco, Tokyo, Japan) with a thermostated cell holder, and interfaced with a Peltier unit at 298 K. The instrument was periodically calibrated with (+)-10-camphorsulphonic acid. A cell with a path length of 0.1 cm was used (Hellma, Kruibeke, Belgium). All spectra were corrected by subtracting the corresponding baseline. The concentration of each polypeptide (importin species and either NLS-NUPR1L or intact NUPR1L) was the same as that used in the fluorescence experiments (Section 4.4).

For data set [2] the following is noted: cited from earlier work.
Data set [3] concerns the target T1, ∆Impα3, truncated species of human importin α3 (residues 64-521) depleted of the IBB (human, UniProt O00629 64-521).
T1 construct: source: E. coli BL21 (DE3), purified (codon-optimized)
T1 sequence (looked up): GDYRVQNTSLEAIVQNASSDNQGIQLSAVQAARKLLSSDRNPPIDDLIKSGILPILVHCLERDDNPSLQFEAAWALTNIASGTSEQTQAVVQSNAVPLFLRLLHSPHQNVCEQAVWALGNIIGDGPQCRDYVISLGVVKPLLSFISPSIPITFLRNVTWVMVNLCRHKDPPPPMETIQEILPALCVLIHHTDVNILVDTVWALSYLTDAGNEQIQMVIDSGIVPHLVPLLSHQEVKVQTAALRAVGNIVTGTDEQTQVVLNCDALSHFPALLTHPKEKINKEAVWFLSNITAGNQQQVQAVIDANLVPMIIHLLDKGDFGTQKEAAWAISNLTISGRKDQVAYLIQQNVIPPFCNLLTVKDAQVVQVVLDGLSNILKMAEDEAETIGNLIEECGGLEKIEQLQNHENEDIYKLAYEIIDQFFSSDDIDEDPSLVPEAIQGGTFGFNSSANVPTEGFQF
As to the kind of experiment: other fluorescence titration; importin (0-10 μM) added to a fixed concentration of NUPR1L (8 μM) or NLS-NUPR1L (8.5 μM); 50 mM phosphate buffer, pH 7.0, 298 K; excitation at 280 nm; apparent dissociation constants. The settings on record: both partners purified.

In data set [4] the target is T2, human importin α3 (Impα3), intact (human, UniProt O00629 1-521).
T2 construct: Human importin α3 (KPNA4), intact protein with the IBB domain, residues 1-521; Purification as for ∆Impα3; also called KPNA4; source: E. coli BL21 (DE3), purified (codon-optimized DNA synthesized by NZYtech, in the pHTP1 vector)
T2 sequence (looked up): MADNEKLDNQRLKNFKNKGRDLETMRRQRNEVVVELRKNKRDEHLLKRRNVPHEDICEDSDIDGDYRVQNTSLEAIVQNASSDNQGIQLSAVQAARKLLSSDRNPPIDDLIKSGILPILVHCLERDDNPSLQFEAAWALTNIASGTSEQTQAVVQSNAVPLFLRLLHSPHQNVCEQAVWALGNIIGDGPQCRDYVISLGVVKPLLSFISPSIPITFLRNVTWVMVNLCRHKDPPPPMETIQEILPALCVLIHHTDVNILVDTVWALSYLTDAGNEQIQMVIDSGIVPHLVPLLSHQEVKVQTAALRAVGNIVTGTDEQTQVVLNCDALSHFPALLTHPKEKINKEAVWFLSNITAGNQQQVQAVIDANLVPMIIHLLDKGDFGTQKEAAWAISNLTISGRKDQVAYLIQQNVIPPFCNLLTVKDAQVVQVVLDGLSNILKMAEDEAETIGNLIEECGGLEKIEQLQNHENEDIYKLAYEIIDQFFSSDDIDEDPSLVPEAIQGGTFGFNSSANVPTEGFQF
Described as above. The settings on record: both partners purified.

Another data set deals with prothymosin α. To be noted: ref [14]; cited from earlier work. The source says: In this aspect, NLS-NUPR1L behaves not differently from any other NLS region of a well-folded protein [15, 20, 22, 40]; that is, it is disordered both in isolation and when participating in forming the complex with impo ...
Data set [5] addresses T1, ∆Impα3, truncated species of human …. As to the kind of experiment: other fluorescence titration; importin (0-10 μM) added to a fixed concentration of NUPR1L (8 μM) or NLS-NUPR1L (8.5 μM); 50 mM phosphate buffer, pH 7.0, 298 K; excitation at 280 nm; apparent dissociation constants. The settings on record: both partners purified. This is another data set of the same source.

The target in data set [6] is T2, human importin α3 (Impα3), intact. Described as above. The settings on record: both partners purified. This is another data set of the same source.
Data set [7] concerns the target T1, ∆Impα3, truncated species of human …. Kind of data set: ITC; Impα3 or ∆Impα3 (10-20 μM) in the cell, NLS-NUPR1L (150-300 μM) in the syringe; Tris 50 mM, pH 8, 298 K; single ligand binding site model. The settings on record: both partners purified. On the technique in general: Isothermal titration calorimetry measures the heat released or taken up as one component is titrated into another.

Data set [8] addresses T2, human importin α3 (Impα3), intact. Described as above. The settings on record: both partners purified.

Here are results for four molecules from article PMC7583046, “The Paralogue of the Intrinsically Disordered Nuclear Protein 1 Has a Nuclear Localization Sequence that Binds to Human Importin α3” (International Journal of Molecular Sciences, 2020).

B1: Impα3: Human importin α3 isoform (residues 1–521) (protein, UniProt O00629 1-521, looked up)
chain: MADNEKLDNQRLKNFKNKGRDLETMRRQRNEVVVELRKNKRDEHLLKRRNVPHEDICEDSDIDGDYRVQNTSLEAIVQNASSDNQGIQLSAVQAARKLLSSDRNPPIDDLIKSGILPILVHCLERDDNPSLQFEAAWALTNIASGTSEQTQAVVQSNAVPLFLRLLHSPHQNVCEQAVWALGNIIGDGPQCRDYVISLGVVKPLLSFISPSIPITFLRNVTWVMVNLCRHKDPPPPMETIQEILPALCVLIHHTDVNILVDTVWALSYLTDAGNEQIQMVIDSGIVPHLVPLLSHQEVKVQTAALRAVGNIVTGTDEQTQVVLNCDALSHFPALLTHPKEKINKEAVWFLSNITAGNQQQVQAVIDANLVPMIIHLLDKGDFGTQKEAAWAISNLTISGRKDQVAYLIQQNVIPPFCNLLTVKDAQVVQVVLDGLSNILKMAEDEAETIGNLIEECGGLEKIEQLQNHENEDIYKLAYEIIDQFFSSDDIDEDPSLVPEAIQGGTFGFNSSANVPTEGFQF
modifications: full-length
In the case of B1, the “solubility (relative to other importin species)” value in data set [1] was “larger solubility”.

B2: ∆Impα3: Truncated species of Impα3 (residues 64-521) depleted of the IBB (protein, UniProt O00629 64-521, looked up, fragment)
chain: GDYRVQNTSLEAIVQNASSDNQGIQLSAVQAARKLLSSDRNPPIDDLIKSGILPILVHCLERDDNPSLQFEAAWALTNIASGTSEQTQAVVQSNAVPLFLRLLHSPHQNVCEQAVWALGNIIGDGPQCRDYVISLGVVKPLLSFISPSIPITFLRNVTWVMVNLCRHKDPPPPMETIQEILPALCVLIHHTDVNILVDTVWALSYLTDAGNEQIQMVIDSGIVPHLVPLLSHQEVKVQTAALRAVGNIVTGTDEQTQVVLNCDALSHFPALLTHPKEKINKEAVWFLSNITAGNQQQVQAVIDANLVPMIIHLLDKGDFGTQKEAAWAISNLTISGRKDQVAYLIQQNVIPPFCNLLTVKDAQVVQVVLDGLSNILKMAEDEAETIGNLIEECGGLEKIEQLQNHENEDIYKLAYEIIDQFFSSDDIDEDPSLVPEAIQGGTFGFNSSANVPTEGFQF
For B2, the “solubility (relative to other importin species)” value in [1] is recorded as “lower solubility”. For the same molecule, in the data set on ∆Impα3 (absence of NUPR1L), the “apparent thermal midpoint of unfolding of isolated ∆Impα3” value is 317 K.

B3: NUPR1L, the NUPR1-like paralogue (intact) (natural protein, UniProt A6NF83 1-97, looked up)
chain: MEAPAERALPRLQALARPPPPISYEEELYDCLDYYYLRDFPACGAGRSKGRTRREQALRTNWPAPGGHERKVAQKLLNGQRKRRQRQLHPKMRTRLT
notes: NUPR1L, 97-residue-long paralogue of NUPR1, intact protein; one tryptophan (Trp62) and five tyrosines; concentrations are in protomer units; also called intact NUPR1L; source: expressed and purified as described [14]
As for B3, the “apparent thermal midpoint of unfolding of ∆Impα3, in presence of NUPR1L” value in the data set on ∆Impα3 (15 μM NUPR1L, 5 μM importin) stood at 323 K. The “self-association state in solution” value in data set [2] (intact protein in solution, no reference at the place) is on record as “oligomer”. Besides, the tendency to aggregate entry in data set [2] (intact protein, ref [14]) is reported as “high tendency to aggregate”. The Kd turned out to be 5 ± 1 µM in data set [3] and 4 ± 0.7 µM in [4]. Further, the “involvement of Trp62 in binding to prothymosin α” value in the data set with prothymosin α is reported as “Trp62 is also involved in the binding of NUPR1L to prothymosin α”.

B4: NLS-NUPR1L, peptide of the nuclear localization sequence of NUPR1L (residues 51-74) (peptide)
peptide: Ac-RTRREQALRTNWPAPGGHERKVAQ-NH2
notes: NUPR1L residues Arg51 to Gln74, the predicted NLS region; numbering as in intact NUPR1L; also called NLS-NUNPR1L; source: synthetic peptide (NZYtech, purity of 95%)
Consider B4, for which the Kd in data set [5] was found to be 5 ± 2 µM; in [6], 3000 ± 1000 nM; in data set [7] it was 5.5 ± 0.9 µM; in data set [8], 12 ± 2 µM. In addition, the figures for the dH in data set [7] and in [8] were -2.4 ± 0.5 kcal/mol and -3.1 ± 0.5 kcal/mol, respectively. For the same molecule, the “stoichiometry N” value in [7] turned out to be 0.75 ± 0.06; in data set [8] it was 1.04 ± 0.05.

Usually stoichiometry N stands for a count of units in the complex or per binding partner.
